From patent US20150051146A1
Read-outs that look alike come from different tables or passages of the source.

B1: Clone 1D6 (DTR carrying the mutations Y380K/Q387E/L390T) (designed binder)
chain: MGKSPGHKTEPFTHDGYAVSWNTVEDSIIRTGFQGESGHDIKITAENTPLPIAGVLLPTIPGKLDVNKSKTHISVNGRKIRMRCRAIDGDVTFCRPKSPVYVGNGVHANLHVAFHRSSSEKIHSNEISSDSIGVLGYQKTVDHTKVNSKLSLFFEIKS

Assays:
pro-HB-EGF on Vero cells [1] = assay: Schild regression from inhibition of diphtheria toxin cytotoxicity on Vero cells
pro-HB-EGF on Vero cells [2] = assay: as above; remark: listed apart in the source
pro-HB-EGF on Vero cells [3] = assay: ratio of Kd values from Schild regression (Vero cytotoxicity)

Molecule	Kd (pro-HB-EGF on Vero cells [1])	Kd (pro-HB-EGF on Vero cells [2])	fold lower affinity for HB-EGF and pro-HB-EGF against CRM197 (pro-HB-EGF on Vero cells [3])
CRM197 (natural mutant of diphtheria toxin comprising the G52E mutation) (from UniProt P00587 26-560) (ligand)	3.1 nM	3.1 nM	
wild-type DTR protein (DTRWT) (from UniProt P00587 405-560) (ligand)	6.5 nM	6.5 nM	2 fold
B1	0.025 nM		
